The values below come from publication PMC314469, “Protein Interaction Networks by Proteome Peptide Scanning” (PLoS Biology, 2004).

To fix the notation:
T1: Myo5 SH3 (MYO5_YEAST), Q04439
T1 chain: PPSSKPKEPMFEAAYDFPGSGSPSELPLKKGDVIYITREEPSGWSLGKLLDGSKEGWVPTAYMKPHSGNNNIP

The target of the assay is T1, Myo5 SH3 (MYO5_YEAST), Q04439. Briefly: SPOT array.
Take ALRKFGYPFSPNDP [YPR097W 38-51]: the normalised SPOT signal, Boehringer light units (BLU); mean over the file's lines of this peptide amounted to 166. The result for YASQYSRPDGPILL [YGR088W 39-52] reads 114; that for AADWYEVPKVPLSA [YLR223C 813-826], 275. For ALGIFFAPESPWWL [YDL247W 284-297] the value was 229; for AARILANPDHPFSR [YPR122W 171-184], 166. The result for AELMLRIPYLPGQN [YDL108W 196-209] reads 236. As for YFKELPPPSDPSSI [YDL108W 289-302], the normalised SPOT signal, Boehringer light units (BLU); mean over the file's lines of this peptide worked out at 165. For ALDYLIPPPMPKNQ [YOL135C 61-74] the value was 131; for YLTEFSRPIPPTPS [YPL009C 61-74], 169; for YEGRFWNPENPYKF [YEL011W 167-180], 163. For APQPHLLPWLPPTD [YDL019C 1187-1200] the value was 117; for YEVTFDGPNDPLHP [YLL028W 124-137], 111; for AEVYYGPPTDPRKQ [YDR001C 32-45], 83.5. For YWKLFFQPEYPVRM [YLR128W 190-203] the value was 144; for APKYYVPPGIPTND [YJL020C 199-212], 10400; for YEQTMKSPKYPSTY [YDR314C 535-548], 138. The molecule ALKSLSNPSSPWQQ [YDR283C 993-1006] yielded a normalised SPOT signal, Boehringer light units (BLU); mean over the file's lines of this peptide of 30.3. The result for YLNSLSEPLVPLAL [YOR134W 141-154] reads 132. The result for AAMMLGNPMAPAVQ [YER109C 209-222] reads 257. As for DARPFLQPVDPVKL [YLR399C 169-182], the normalised SPOT signal, Boehringer light units (BLU); mean over the file's lines of this peptide amounted to 179. The result for APKKWKAPKGPKPT [YGL099W 6-19] reads 1010; that for YPEKFQKPYNPLAM [YJR059W 450-463], 157; that for AANAHISPPVPGPA [YHL002W 373-386], 28.6. For ALNNWILPSTPHIQ [YHR197W 533-546] the value was 169; for AELFLGIPIFPGAS [YJL141C 561-574], 36.7. For ALYHLSNPNVPKLW [YBR112C 140-153] the value was 196; for YEADYVIPVLPGSH [YNL262W 2031-2044], 125; for YLLELPDPLIPNDV [YFL047W 564-577], 163. In turn, DARPFLKPVDPIAL [YDL070W 154-167] had a normalised SPOT signal, Boehringer light units (BLU); mean over the file's lines of this peptide of 126.

YLNNLAEPLIPLSL [YDR389W 216-229] came in with a normalised SPOT signal, Boehringer light units (BLU); mean over the file's lines of this peptide of 222. The result for AADSHAIPVDPPSY [YKR021W 673-686] reads 37.9; that for AAVRLDQPILPQND [YBR018C 82-95], 105; that for APPALSAPSIPPVP [YJL020C 739-752], 10800. For DEFTLDLPRIPSLE [YBR123C 27-40] the value was 181; for AFHELGIPVIPNPS [YDR232W 404-417], 193; for YEKALHFPAGPKST [YFL042C 472-485], 147. On to ALGFYRAPGSPAPA [YMR069W 242-255], for which the normalised SPOT signal, Boehringer light units (BLU); mean over the file's lines of this peptide turned out to be 101. For AELLLGQPMFPGES [YMR139W 231-244] the value was 172; for AAPKHAPPPVPNET [YDL019C 770-783], 111000; for APPALSAPSVPPVP [YJL020C 718-731], 6580.

With AAMNLETPSNPDSA [YPL217C 1040-1053], the normalised SPOT signal, Boehringer light units (BLU); mean over the file's lines of this peptide amounted to 84.9.

Molecule ALKEMTHPIKPSAQ [YLR239C 27-40] showed a normalised SPOT signal, Boehringer light units (BLU); mean over the file's lines of this peptide of 261. For YENSHSLPLDPQSP [YLR416C 105-118] the value was 122.

For the molecule YLPHMSRPLGPDEV [YMR131C 97-110], the normalised SPOT signal, Boehringer light units (BLU); mean over the file's lines of this peptide was found to be 172. For AFHFWRPPIAPAEM [YDR230W 49-62] the value was 1960; for AELFLRRPIFPGRD [YBL016W 214-227], 216.

With YFKNMSNPKIPATK [YIL125W 74-87], the normalised SPOT signal, Boehringer light units (BLU); mean over the file's lines of this peptide is 128. For the molecule ALDNFTLPGTPGFP [YLR370C 101-114], the normalised SPOT signal, Boehringer light units (BLU); mean over the file's lines of this peptide worked out at 181. For YPAKLRIPETPVKK [YJL187C 187-200] the value was 220. For AAYDHAEPVQPEDA [YGL009C 504-517] the value was 146. The result for APAPPPPPQMPAT [YOR181W 519-531] reads 7750; that for AEFDLTDPEVPSFY [YDR362C 446-459], 166; that for APLLYSSPSEPMAY [YMR055C 139-152], 83.1. In the case of AEAYLVTPEEPAKN [YDL129W 9-22], the normalised SPOT signal, Boehringer light units (BLU); mean over the file's lines of this peptide came out at 39.6.
